One may read the Km as the concentration of substrate that gives half-maximal velocity.

Substrate in series [1]: CN(CC(=O)O)C(=N)N
As to the kind of experiment: purified protein, by the assay type. The note with it: other: 37° C., 0.1 mole/liter Tris-HCl (pH 8.0), optimum test conditions, wild type enzyme.

Substrate in series [2]: CN(CC(=O)O)C(=N)N
Briefly: purified protein, by the assay type. The format is biochemical, Pseudomonas putida. As to conditions: other: 37° C., 0.1 mole/liter Tris-HCl (pH 8.0), optimum test conditions, mutant 109 = Val. The text has this:
(optimum test conditions)

B1: Pseudomonas putida creatine amidinohydrolase, wild type, from Escherichia coli DSM 3143 (pBT 2a-1, DSM 3148P) (Pseudomonas putida) (protein)
chain: MQMPKTLRIRNGDKVRSTFSAQEYANRQARLRAHLAAENIDAAIFTSYHNINYYSDFLYCSFGRPYALVVTEDDVISISANIDGGQPWRRTVGTDNIVYTDWQRDNYFAAIQQALPKARRIGIEHDHLNLQNRDKLAARYPDAELVDVAAACMRMRMIKSAEEHVMIRHGARIADIGGAAVVEALGDQVPEYEVALHATQAMVRAIADTFEDVELMDTWTWFQSGINTDGAHNPVTTRKVNKGDILSLNCFPMIAGYYTALERTLFLDHCSDDHLRLWQVNVEVHEAGLKLIKPGARCSDIARELNEIFLKHDVLQYRTFGYGHSFGTLSHYYGREAGLELREDIDTVLEPGMVVSMEPMIMLPEGLPGAGGYREHDILIVNENGAENITKFPYGPEKNIIRK
Turning to B1, the Michaelis constant (Km) in series [1] was determined as 25 mM.

B2: Pseudomonas putida creatine amidinohydrolase mutant (Ala109Val and Val355Met), from Escherichia coli DSM 4106 (pBT 119, DSM 4107P) (Pseudomonas putida; … (protein)
chain: MQMPKTLRIRNGDKVRSTFSAQEYANRQARLRAHLAAENIDAAIFTSYHNINYYSDFLYCSFGRPYALVVTEDDVISISANIDGGQPWRRTVGTDNIVYTDWQRDNYFVAIQQALPKARRIGIEHDHLNLQNRDKLAARYPDAELVDVAAACMRMRMIKSAEEHVMIRHGARIADIGGAAVVEALGDQVPEYEVALHATQAMVRAIADTFEDVELMDTWTWFQSGINTDGAHNPVTTRKVNKGDILSLNCFPMIAGYYTALERTLFLDHCSDDHLRLWQVNVEVHEAGLKLIKPGARCSDIARELNEIFLKHDVLQYRTFGYGHSFGTLSHYYGREAGLELREDIDTVLEPGMVMSMEPMIMLPEGLPGAGGYREHDILIVNENGAENITKFPYGPEKNIIRK
notes: made in house; host or cells: Escherichia coli DSM 4106 (plasmid pBT 119, DSM 4107P)
Turning to B2, in series [2] (355 = Met), the Km turned out to be 16 mM.

B3: Pseudomonas putida creatine amidinohydrolase mutant (amino acid 109 = Val; Ala109Val), from Escherichia coli DSM 4105 (pBT 109, DSM 4108P) (Pseudomonas putida; … (protein)
chain: MQMPKTLRIRNGDKVRSTFSAQEYANRQARLRAHLAAENIDAAIFTSYHNINYYSDFLYCSFGRPYALVVTEDDVISISANIDGGQPWRRTVGTDNIVYTDWQRDNYFVAIQQALPKARRIGIEHDHLNLQNRDKLAARYPDAELVDVAAACMRMRMIKSAEEHVMIRHGARIADIGGAAVVEALGDQVPEYEVALHATQAMVRAIADTFEDVELMDTWTWFQSGINTDGAHNPVTTRKVNKGDILSLNCFPMIAGYYTALERTLFLDHCSDDHLRLWQVNVEVHEAGLKLIKPGARCSDIARELNEIFLKHDVLQYRTFGYGHSFGTLSHYYGREAGLELREDIDTVLEPGMVVSMEPMIMLPEGLPGAGGYREHDILIVNENGAENITKFPYGPEKNIIRK
notes: made in house; host or cells: Escherichia coli DSM 4105 (plasmid pBT 109, DSM 4108P)
Take B3: in series [2], the Km was determined as 20 mM.

For the origin of these results see US4990453A, “Modified pseudomonas putida creatine amidinohydrolase” (Boehringer Mannheim GmbH, priority 1987, dated 1991).
